PMC11784564 (RSC Chemical Biology, 2025)

Experiments:
[1] = target: T1, PfSir2A (Plasmodium falciparum) (UniProt Q8IE47); assay: EMSA; conditions: room temperature
T1 sequence: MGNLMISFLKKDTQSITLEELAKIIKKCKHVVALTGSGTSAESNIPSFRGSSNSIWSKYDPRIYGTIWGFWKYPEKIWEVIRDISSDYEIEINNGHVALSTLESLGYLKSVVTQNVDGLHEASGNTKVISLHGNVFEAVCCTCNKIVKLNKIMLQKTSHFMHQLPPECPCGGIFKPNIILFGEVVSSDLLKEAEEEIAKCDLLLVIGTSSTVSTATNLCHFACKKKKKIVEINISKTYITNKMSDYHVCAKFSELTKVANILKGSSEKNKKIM

PfSir2A [2] = target: T2, PfSir2A (Plasmodium falciparum, UniProt Q8IE47); assay: HPLC deacetylation assay with H3K9Ac peptide; type: biochemical
T2 sequence (Q8IE47 1-273): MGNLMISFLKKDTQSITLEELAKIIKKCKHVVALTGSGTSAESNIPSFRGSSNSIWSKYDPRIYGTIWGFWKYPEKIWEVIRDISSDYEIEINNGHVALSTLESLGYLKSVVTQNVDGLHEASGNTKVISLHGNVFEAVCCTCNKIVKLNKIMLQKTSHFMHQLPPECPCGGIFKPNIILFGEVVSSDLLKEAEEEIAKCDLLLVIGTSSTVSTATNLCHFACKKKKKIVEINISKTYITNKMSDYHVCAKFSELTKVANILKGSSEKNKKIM

PfSir2A [3] = target: T2, PfSir2A; assay: HPLC demyristoylation assay with H3K9Myr peptide; type: biochemical
PfSir2A [4] = target: T3, PfSir2A (Plasmodium falciparum, UniProt Q8IE47 1-273); assay: MST
T3 sequence: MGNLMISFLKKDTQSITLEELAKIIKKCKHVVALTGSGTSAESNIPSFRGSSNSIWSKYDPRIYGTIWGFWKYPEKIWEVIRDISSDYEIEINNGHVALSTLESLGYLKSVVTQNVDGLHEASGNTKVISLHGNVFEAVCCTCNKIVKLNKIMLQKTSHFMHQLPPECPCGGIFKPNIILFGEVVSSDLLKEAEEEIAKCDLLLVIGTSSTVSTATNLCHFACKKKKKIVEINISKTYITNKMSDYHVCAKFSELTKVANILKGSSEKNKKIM

## H3K9Ac dNuc (601-positioned nucleosome)
[1]; H3K9Ac on histone H3; […]) / MST buffer
  Kd: 1.4 µM

## NC(=O)c1ccc[n+]([C@@H]2O[C@H](CO)[C@@H](O)[C@H]2O)c1 [nicotinamide riboside]
PfSir2A [2]
  IC50: 155 ± 14.9 µM

## CCCCCCCCCCCCCC(=O)O [myristic acid]
PfSir2A [3]
  IC50: 107 ± 15 µM

## c1cncc(-c2c[nH]nn2)c1 [3-TYP]
PfSir2A [2]
  IC50: ~59.6 µM

## 601 nucleosome assembly sequence DNA, 147 bp
[1]; […]) / MST buffer
  Kd: 4 µM

## GAAGTCGGGGATGGCAGAGGCAGTGCT (ssDNA) [ssDNA (MST)]
PfSir2A [4]
  Kd: 0.138 µM
